Measured values as given in FireProtDB (doi:10.1016/0022-2836(92)90906-z).

B1: Ribonuclease, P00648 (parent)
chain: MMKMEGIALKKRLSWISVCLLVLVSAAGMLFSTAAKTETSSHKAHTEAQVINTFDGVADYLQTYHKLPDNYITKSEAQALGWVASKGNLADVAPGKSIGGDIFSNREGKLPGKSGRTWREADINYTSGFRNSDRILYSSDWLIYKTTDHYQTFTKIR

Variants of: B1
Conditions: Bacillus amyloliquefaciens; pH 6.3; 25 °C; Urea; Fluorescence; MES 1.00 M; NaCl 613 mM; reversible: yes; structure 1BNI; whole UniProt chain shown

Row | Variant | ddG of mutation (higher = less stable) | denaturant m value | denaturant midpoint (higher = more stable) | unfolding free energy
1 | H65S W141L | 2.8 kcal/mol | 1.86 kcal/mol/M | 3.24 M | 6 kcal/mol
2 | D55G | 1.3 kcal/mol | 1.89 kcal/mol/M | 3.97 M | 7.5 kcal/mol
3 | D55S | 0.7 kcal/mol | 1.99 kcal/mol/M | 4.07 M | 8.1 kcal/mol
4 | K74G | -0.2 kcal/mol | 2.11 kcal/mol/M | 4.29 M | 9 kcal/mol
5 | E76A | 1.2 kcal/mol | 1.94 kcal/mol/M | 3.93 M | 7.6 kcal/mol
6 | E76S | 1.2 kcal/mol | 1.93 kcal/mol/M | 3.94 M | 7.6 kcal/mol
7 | E76G | 2.2 kcal/mol | 1.81 kcal/mol/M | 3.64 M | 6.6 kcal/mol
8 | S75A | -0.6 kcal/mol | 1.98 kcal/mol/M | 4.78 M | 9.4 kcal/mol
9 | S75G | 0.5 kcal/mol | 1.88 kcal/mol/M | 4.34 M | 8.3 kcal/mol
10 | H65K W141L | 2.7 kcal/mol | 1.8 kcal/mol/M | 3.37 M | 6.1 kcal/mol
11 | Q78S | -0.3 kcal/mol | 2.05 kcal/mol/M | 4.44 M | 9.1 kcal/mol
12 | Q78G | 1.1 kcal/mol | 1.89 kcal/mol/M | 4.07 M | 7.7 kcal/mol
13 | Q78A | 0.3 kcal/mol | 1.83 kcal/mol/M | 4.62 M | 8.5 kcal/mol
14 | H65D | 2.2 kcal/mol | 2.04 kcal/mol/M | 3.26 M | 6.6 kcal/mol
15 | H65R | 1 kcal/mol | 1.97 kcal/mol/M | 3.97 M | 7.8 kcal/mol
16 | H65N | 1.8 kcal/mol | 1.89 kcal/mol/M | 3.71 M | 7 kcal/mol
17 | H65G | 0.7 kcal/mol | 1.91 kcal/mol/M | 4.21 M | 8.1 kcal/mol
18 | H65A | 1.9 kcal/mol | 1.91 kcal/mol/M | 3.62 M | 6.9 kcal/mol

Row | Variant | ddG of mutation (higher = less stable) | denaturant m value | denaturant midpoint (higher = more stable) | unfolding free energy
19 | H65S | 2.1 kcal/mol | 1.96 kcal/mol/M | 3.4 M | 6.7 kcal/mol
20 | H65K | 0.9 kcal/mol | 1.99 kcal/mol/M | 3.96 M | 7.9 kcal/mol
21 | T63A | 0.5 kcal/mol | 1.88 kcal/mol/M | 4.43 M | 8.3 kcal/mol
22 | G81D | 3.2 kcal/mol | 1.99 kcal/mol/M | 2.83 M | 5.6 kcal/mol
23 | G81T | 3.2 kcal/mol | 1.96 kcal/mol/M | 2.84 M | 5.6 kcal/mol
24 | G81N | 2.7 kcal/mol | 1.94 kcal/mol/M | 3.16 M | 6.1 kcal/mol
25 | G81S | 2.9 kcal/mol | 2.03 kcal/mol/M | 2.93 M | 5.9 kcal/mol
26 | G81K | 2.7 kcal/mol | 2.06 kcal/mol/M | 2.97 M | 6.1 kcal/mol
27 | G81H | 2.3 kcal/mol | 2.02 kcal/mol/M | 3.21 M | 6.5 kcal/mol
28 | G81A | 2.7 kcal/mol | 2.06 kcal/mol/M | 2.97 M | 6.1 kcal/mol
29 | H65R W141L | 1.6 kcal/mol | 2.06 kcal/mol/M | 3.48 M | 7.2 kcal/mol
30 | Y64G | 4 kcal/mol | 1.91 kcal/mol/M | 2.5 M | 4.8 kcal/mol
31 | Y64S | 2 kcal/mol | 2.08 kcal/mol/M | 3.25 M | 6.8 kcal/mol
32 | T53P | 3.3 kcal/mol | 1.83 kcal/mol/M | 2.99 M | 5.5 kcal/mol
33 | T73D | 0 kcal/mol | 1.95 kcal/mol/M | 4.53 M | 8.8 kcal/mol
34 | H65A W141L | 2.3 kcal/mol | 1.94 kcal/mol/M | 3.36 M | 6.5 kcal/mol
35 | D59G | 0.2 kcal/mol | 1.87 kcal/mol/M | 3.97 M | 8.6 kcal/mol
36 | D59S | 0.9 kcal/mol | 1.85 kcal/mol/M | 4.29 M | 7.9 kcal/mol
